Consider 56 variants from the RNAGym collection of RNA variant scans (doi:10.7554/elife.90254).

Sequences and labels used below:
B1: LINE1-mini (parent)
chain: GGCAGAGCUCAACACAGCGUGGCAAAGUGGCUGUGGCUAGACUGCC

This data set covers variants of B1. In words: self-cleavage, relative activity (ratio to wild type); higher = more cleavage; in vitro, sequencing; the parent is a self-cleaving ribozyme.
GGCAUAGCUCAACACAGCGUGGCAAAGUGGCUGUGGCUAGACAGCC [G5U U43A]: the self-cleavage was 0.08.
Next, GGCAUAGCUCAACACAGCGUGGCAAAGUGGCUGUGGCUAGACCGCC [G5U U43C]: 0.06.
For GGCAUAGCUCAACACAGCGUGGCAAAGUGGCUGUGGCUAGACGGCC [G5U U43G], the self-cleavage was found to be 0.1.
As to GGCAGCGCUCAACACAGCGUGGCAAAGUGGCUGUGGCUAGACUGCC [A6C], the self-cleavage came to 0.71.
For the variant GGCAUAGCUCAACACAGCGUGGCAAAGUUGCUGUGGCUAGACUGCC [G5U G29U], the self-cleavage is 0.12.
With GGCAUAGCUCAACACAGCGUGGCAAAGUCGCUGUGGCUAGACUGCC [G5U G29C], the self-cleavage came out at 0.04.
On to GGCAUAGCUCAACACAGCGUGGCAAAGUAGCUGUGGCUAGACUGCC [G5U G29A], for which the self-cleavage is 0.15.
Next, GGCAUAGCUCAACACAGCGUGGCAAAUUGGCUGUGGCUAGACUGCC [G5U G27U]: 0.11; GGCAUAGCUCAACACAGCGUGGCAAAAUGGCUGUGGCUAGACUGCC [G5U G27A]: 0.06.
Next, GGCAUAGCUCAACACAGCGUGGCAAACUGGCUGUGGCUAGACUGCC [G5U G27C]: 0.05.
The value for GGCAGCGCUCAACACUGCGUGGCAAAGUGGCUGUGGCUAGACUGCC [A6C A16U] was 0.09; that for GGCAGCGCUCAACACCGCGUGGCAAAGUGGCUGUGGCUAGACUGCC [A6C A16C] was 0.1.
As to GGCAGCGCUCAACACGGCGUGGCAAAGUGGCUGUGGCUAGACUGCC [A6C A16G], the self-cleavage amounted to 0.22.
Take GGCAGCGCUCAACGCAGCGUGGCAAAGUGGCUGUGGCUAGACUGCC [A6C A14G]: the self-cleavage was 0.16.
Next, GGCAGCGCUCAACCCAGCGUGGCAAAGUGGCUGUGGCUAGACUGCC [A6C A14C]: 0.13; GGCAGCGCUCAACUCAGCGUGGCAAAGUGGCUGUGGCUAGACUGCC [A6C A14U]: 0.22.
Next, GGCAGCGCUCAACACAGCGUGGCAAAGUGGCUGUGGCUAGACUGCU [A6C C46U]: 0.89; GGCAGCGCUCAACACAGCGUGGCAAAGUGGCUGUGGCUAGACUGCA [A6C C46A]: 0.5; GGCAGCGCUCAACACAGCGUGGCAAAGUGGCUGUGGCUAGACUGCG [A6C C46G]: 0.46.
Consider GGCAGCGAUCAACACAGCGUGGCAAAGUGGCUGUGGCUAGACUGCC [A6C C8A], for which the self-cleavage is 0.26.
With GGCAGCGGUCAACACAGCGUGGCAAAGUGGCUGUGGCUAGACUGCC [A6C C8G], the self-cleavage stood at 0.07.
As to GGCAGCGUUCAACACAGCGUGGCAAAGUGGCUGUGGCUAGACUGCC [A6C C8U], the self-cleavage came to 0.51.
The value for GGCAGCGCUCAACACAGCGUGGCAAAGUGGAUGUGGCUAGACUGCC [A6C C31A] was 0.11; that for GGCAGCGCUCAACACAGCGUGGCAAAGUGGUUGUGGCUAGACUGCC [A6C C31U] was 0.22.
Regarding GGCAGCGCUCAACACAGCGUGGCAAAGUGGGUGUGGCUAGACUGCC [A6C C31G], the self-cleavage turned out to be 0.09.
Next, GGCAUAGCUCAACACAGCGUGGCAAAGUGGCUGUGCCUAGACUGCC [G5U G36C]: 0.04; GGCAUAGCUCAACACAGCGUGGCAAAGUGGCUGUGUCUAGACUGCC [G5U G36U]: 0.57; GGCAUAGCUCAACACAGCGUGGCAAAGUGGCUGUGACUAGACUGCC [G5U G36A]: 0.33.
Next, GGCAGCGCUCAACACAGCGUGGCAAAGUGGCUGUGGAUAGACUGCC [A6C C37A]: 0.34; GGCAGCGCUCAACACAGCGUGGCAAAGUGGCUGUGGUUAGACUGCC [A6C C37U]: 0.12.
For the variant GGCAGCGCUCAACACAGCGUGGCAAAGUGGCUGUGGGUAGACUGCC [A6C C37G], the self-cleavage worked out at 0.03.
GGCAGCGCUCAGCACAGCGUGGCAAAGUGGCUGUGGCUAGACUGCC [A6C A12G]: the self-cleavage is 0.04.
Next, GGCAGCGCUCACCACAGCGUGGCAAAGUGGCUGUGGCUAGACUGCC [A6C A12C]: 0.06; GGCAGCGCUCAUCACAGCGUGGCAAAGUGGCUGUGGCUAGACUGCC [A6C A12U]: 0.16; GGCAGCGCUCAACACAGCGUGGCAAAGUGGCUGUGGCUCGACUGCC [A6C A39C]: 0.23.
The value for GGCAGCGCUCAACACAGCGUGGCAAAGUGGCUGUGGCUGGACUGCC [A6C A39G] was 0.1; that for GGCAGCGCUCAACACAGCGUGGCAAAGUGGCUGUGGCUUGACUGCC [A6C A39U] was 0.68; that for GGCAUAGCACAACACAGCGUGGCAAAGUGGCUGUGGCUAGACUGCC [G5U U9A] was 0.36.
Take GGCAUAGCGCAACACAGCGUGGCAAAGUGGCUGUGGCUAGACUGCC [G5U U9G]: the self-cleavage was found to be 0.11.
The value for GGCAUAGCCCAACACAGCGUGGCAAAGUGGCUGUGGCUAGACUGCC [G5U U9C] was 0.05; that for GGCAGCGCUCGACACAGCGUGGCAAAGUGGCUGUGGCUAGACUGCC [A6C A11G] was 0.02; that for GGCAGCGCUCCACACAGCGUGGCAAAGUGGCUGUGGCUAGACUGCC [A6C A11C] was 0.05.
Next, GGCAGCGCUCUACACAGCGUGGCAAAGUGGCUGUGGCUAGACUGCC [A6C A11U]: 0.1; GGCAGCGCUUAACACAGCGUGGCAAAGUGGCUGUGGCUAGACUGCC [A6C C10U]: 0.15.
With GGCAGCGCUAAACACAGCGUGGCAAAGUGGCUGUGGCUAGACUGCC [A6C C10A], the self-cleavage stood at 0.11.
Next, GGCAGCGCUGAACACAGCGUGGCAAAGUGGCUGUGGCUAGACUGCC [A6C C10G]: 0.05; GGCAGCGCUCAACACAGCGUGGCCAAGUGGCUGUGGCUAGACUGCC [A6C A24C]: 0.41; GGCAGCGCUCAACACAGCGUGGCGAAGUGGCUGUGGCUAGACUGCC [A6C A24G]: 0.49.
Take GGCAGCGCUCAACACAGCGUGGCUAAGUGGCUGUGGCUAGACUGCC [A6C A24U]: the self-cleavage came to 1.07.
GGCAUAGCUCAACACAGCGUGGCAAAGUGGCGGUGGCUAGACUGCC [G5U U32G]: the self-cleavage was found to be 0.09.
Next, GGCAUAGCUCAACACAGCGUGGCAAAGUGGCCGUGGCUAGACUGCC [G5U U32C]: 0.07; GGCAUAGCUCAACACAGCGUGGCAAAGUGGCAGUGGCUAGACUGCC [G5U U32A]: 0.07; GGCAGCGCUCAAGACAGCGUGGCAAAGUGGCUGUGGCUAGACUGCC [A6C C13G]: 0.15.
GGCAGCGCUCAAAACAGCGUGGCAAAGUGGCUGUGGCUAGACUGCC [A6C C13A]: the self-cleavage turned out to be 0.12.
Next, GGCAGCGCUCAAUACAGCGUGGCAAAGUGGCUGUGGCUAGACUGCC [A6C C13U]: 0.14; GGCAUAGCUCAACACAGCGUGGCAAAGUGUCUGUGGCUAGACUGCC [G5U G30U]: 0.26.
